Results as given in article PMC8586017, “CENP-V is required for proper chromosome segregation through interaction with spindle microtubules in mouse oocytes” (Nature Communications, 2021).

Target: taxol-stabilised ATTO 647N-labelled microtubules (UniProt P02550 1-451, ATTO 647N label (which chain and residues not stated) | ATTO 647N label (which chain and residues not stated))
Assay: TIRF microscopy, saturation binding curve; CENP-V-eGFP titrated onto surface-bound taxol-stabilised ATTO 647N-labelled microtubules; BRB80 (80 mM PIPES pH 6.8, 1 mM MgCl2, 1 mM EGTA) with 10 µM taxol, casein, DTT; 25 °C, 15 m equilibration; GFP intensity per micrometer of at least 100 microtubules per condition; Hill (cooperative) fit
Conditions: both partners purified

Kd: 53.2 ± 4.5 nM
B1: His6-CENP-V-eGFP (natural protein, UniProt Q9CXS4 1-252, looked up)
chain: MRRTRSAVATGPREQRRSGATGGLSGGESRAQRSRSRTRAGAGGGGGAVGPQPSAKPRPKPPPRAQEAAAEEPPPAVTPAASVSALDLGEQRERWETFQKRQRLSFEGAAKLLLDTFEYQGLVKHTGGCHCGAVRFEVWASADLHIFDCNCSICKKKQNRHFIVPASRFKLLKGAESITTYTFNTHKAQHTFCKRCGVQSFYTPRSNPGGFGIAPHCLDEGTVRSVVTEEFNGSDWERAMKEHKTIKNMSKE
notes: CENP-V (centromere protein V); also called CENP-V-GFP; recombinant CENP-V-eGFP
